Reference: patent US20240287161A1 (NATIONAL UNIVERSITY CORPORATION TOTTORI UNIVERSITY, published 2024)

Legend:
[1] = target: T1, HCoV-HKU1 trimeric S protein (amino acids 13-1293) with T4 foldon, histidine tag and strep-tag (HCoV-HKU1, UniProt Q5MQD0 13-1297); experiment: ELISA on coated S-trimeric antigen, anti-human IgG-HRP [Human IgG3, NT-193]
T1 sequence: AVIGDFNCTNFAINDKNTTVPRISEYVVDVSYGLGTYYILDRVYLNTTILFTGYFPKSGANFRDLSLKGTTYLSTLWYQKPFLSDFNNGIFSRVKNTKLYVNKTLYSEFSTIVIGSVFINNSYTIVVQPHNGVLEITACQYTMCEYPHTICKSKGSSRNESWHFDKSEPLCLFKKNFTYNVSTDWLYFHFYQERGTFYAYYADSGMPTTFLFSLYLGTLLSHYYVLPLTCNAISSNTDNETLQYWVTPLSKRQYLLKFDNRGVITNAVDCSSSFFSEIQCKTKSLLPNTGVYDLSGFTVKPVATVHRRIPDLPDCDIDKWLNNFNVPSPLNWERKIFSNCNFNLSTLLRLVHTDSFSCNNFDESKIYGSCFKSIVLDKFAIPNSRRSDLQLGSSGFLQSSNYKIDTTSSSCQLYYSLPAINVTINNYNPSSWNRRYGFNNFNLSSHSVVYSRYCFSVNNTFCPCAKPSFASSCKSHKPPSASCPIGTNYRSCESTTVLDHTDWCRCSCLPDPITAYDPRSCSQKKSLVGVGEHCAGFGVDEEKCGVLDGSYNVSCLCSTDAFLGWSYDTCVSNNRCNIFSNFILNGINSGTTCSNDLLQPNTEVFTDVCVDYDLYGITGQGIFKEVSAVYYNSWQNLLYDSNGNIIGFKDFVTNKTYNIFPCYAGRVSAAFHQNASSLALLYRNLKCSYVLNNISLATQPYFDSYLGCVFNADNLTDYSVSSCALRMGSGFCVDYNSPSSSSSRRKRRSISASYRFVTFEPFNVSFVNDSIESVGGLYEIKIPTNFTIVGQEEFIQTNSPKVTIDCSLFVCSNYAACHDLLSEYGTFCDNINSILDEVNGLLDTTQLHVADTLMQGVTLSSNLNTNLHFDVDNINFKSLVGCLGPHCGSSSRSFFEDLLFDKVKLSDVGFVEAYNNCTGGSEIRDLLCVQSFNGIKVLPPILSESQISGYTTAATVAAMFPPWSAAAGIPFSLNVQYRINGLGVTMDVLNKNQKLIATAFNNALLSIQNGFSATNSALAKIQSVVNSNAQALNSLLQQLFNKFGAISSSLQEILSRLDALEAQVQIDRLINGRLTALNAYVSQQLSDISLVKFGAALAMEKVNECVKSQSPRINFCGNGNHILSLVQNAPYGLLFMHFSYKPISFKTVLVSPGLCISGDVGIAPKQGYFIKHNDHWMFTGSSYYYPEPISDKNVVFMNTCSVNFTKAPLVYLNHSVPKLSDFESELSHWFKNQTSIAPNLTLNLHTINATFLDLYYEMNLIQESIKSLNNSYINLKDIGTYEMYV

[2] = target: T2, HCoV-229E trimeric S protein (amino acids 12-1109) with T4 foldon, histidine tag and strep-tag (HCoV-229E, UniProt P15423 12-1112); experiment: as above
T2 chain: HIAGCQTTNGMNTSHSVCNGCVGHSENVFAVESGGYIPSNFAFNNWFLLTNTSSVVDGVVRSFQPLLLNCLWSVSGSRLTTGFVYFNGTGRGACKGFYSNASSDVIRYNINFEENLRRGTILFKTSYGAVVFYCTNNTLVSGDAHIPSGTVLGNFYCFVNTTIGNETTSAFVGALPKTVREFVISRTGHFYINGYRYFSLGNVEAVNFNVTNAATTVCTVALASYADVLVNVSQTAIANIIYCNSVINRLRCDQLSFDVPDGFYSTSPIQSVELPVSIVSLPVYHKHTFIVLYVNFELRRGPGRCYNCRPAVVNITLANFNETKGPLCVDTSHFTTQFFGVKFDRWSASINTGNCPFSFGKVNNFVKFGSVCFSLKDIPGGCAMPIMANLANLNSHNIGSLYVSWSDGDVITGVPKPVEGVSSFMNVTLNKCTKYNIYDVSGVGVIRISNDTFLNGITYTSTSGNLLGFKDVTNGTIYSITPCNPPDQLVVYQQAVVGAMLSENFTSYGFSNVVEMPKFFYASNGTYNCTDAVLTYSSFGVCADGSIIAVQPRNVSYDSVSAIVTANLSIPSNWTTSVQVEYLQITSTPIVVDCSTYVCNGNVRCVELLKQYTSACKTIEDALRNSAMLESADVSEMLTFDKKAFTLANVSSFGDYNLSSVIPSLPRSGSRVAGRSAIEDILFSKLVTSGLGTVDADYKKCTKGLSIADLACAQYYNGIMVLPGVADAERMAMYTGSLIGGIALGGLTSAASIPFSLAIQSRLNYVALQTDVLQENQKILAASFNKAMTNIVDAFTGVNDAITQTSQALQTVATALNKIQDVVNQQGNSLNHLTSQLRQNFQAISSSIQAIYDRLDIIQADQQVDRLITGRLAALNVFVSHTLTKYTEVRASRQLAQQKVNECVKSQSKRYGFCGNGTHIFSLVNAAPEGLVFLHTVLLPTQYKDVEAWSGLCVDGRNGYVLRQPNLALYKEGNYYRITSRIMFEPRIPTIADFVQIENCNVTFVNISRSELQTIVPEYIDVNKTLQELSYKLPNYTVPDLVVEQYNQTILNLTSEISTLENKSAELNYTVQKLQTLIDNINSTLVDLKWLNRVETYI

B1: NT-193, human IgG3 subclass (antibody, V domains shown)
VH: EVQLQQWGAGLLKPSETLSLTCAVYGGSFSGYYWSWIRQPPGKGLEWIGEINHSGSTNYNPSLKSRVTISVDTSKNQFSLKLSSVTAADTAVYYCARGWDLDYYYGMDVWGQGTTVTVSS
VL: DIRMTQSPSAMSASVGDRVTVTCRASQGIGNYLAWFQLKPGKVPKRLIYAASSLQSGVPARFSGGGSGTEFTLTISSLQPEDFATYYCLQHGFLPWTFGQGTKLEIK
[1]
  binding result: no binding (tested: 1000 ng/ml)
[2]
  binding result: no binding (tested: 1000 ng/ml)
